Measured values: PMC11336063

Target: N-terminal domain of eIF2α (eIF2α-NTD), amino acids 2–187 (UniProt P05198)
Sequence of UniProt P05198 (P05198 2-187): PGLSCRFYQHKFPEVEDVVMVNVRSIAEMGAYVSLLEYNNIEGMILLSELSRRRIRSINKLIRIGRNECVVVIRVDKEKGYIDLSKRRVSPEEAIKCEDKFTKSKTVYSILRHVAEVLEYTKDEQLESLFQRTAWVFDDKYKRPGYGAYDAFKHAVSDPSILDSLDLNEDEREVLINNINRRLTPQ

human GCN2 G1109R variant, 3xFLAG tagged (from UniProt Q9P2K8 1-1649) (enzyme)
eIF2α-S51 phosphorylation of eIF2α-NTD (1 μM) by immunopurified GCN2 variant in the in vitro kinase assay, percent: 27.2%

human GCN2 P1115L variant, 3xFLAG tagged (from UniProt Q9P2K8 1-1649) (enzyme)
eIF2α-S51 phosphorylation of eIF2α-NTD (1 μM) by immunopurified GCN2 variant in the in vitro kinase assay, percent: 12.9%
